From the supplement of paper PMC12042874 come the findings set out here.

A short description of this data set: amyloid nucleation score (Sup35N fusion, yeast selection) (log enrichment); library NNK2; higher = more nucleation; inactive = no reads after selection. Put shortly: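 Random libraries were run with three technical output replicates. In each, psi-negative yeast expressing Sup35N fused to peptides of 20 random codons were induced 24 hours with 100 μM copper sulfate and grown 7 days at 30°C on medium lacking adenine and uracil, and input and output plasmid inserts were Illumina-sequenced. The nucleation score is the DiMSum log enrichment of output over input reads, centred on the mode score of non-aggregating sequences, and sequences under 100 input reads were excluded.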

± gives the uncertainty stated by the source.

Turning to VMSDGMYTGKAYSLVLDMRI, the amyloid nucleation score entry was “inactive”. As for GSRVALLNMGGK, the figure is -0.512 ± 0.79. As for MIDLTLIFLFLVYSD, the figure is -0.827 ± 0.62; as for SISSGFFWKEAIKGSAVSLW, 0.36 ± 0.8; as for LNYNYTQDR, -0.751 ± 1.1. The substance IHNPLVRY had an amyloid nucleation score of -0.366 ± 0.41. As for AMFTSSMIRTLGCCSGSQTA, the figure is 4.14 ± 0.13.

With YFFKRIW, the amyloid nucleation score entry was “inactive”. The result for YKWWDLCLNFPCGRLKAQPR reads 1.28 ± 0.25; that for SLLSPHPLD, 0.203 ± 0.63; that for LLKLCRRIKDATFDSLPGCA, 0.93 ± 0.31. YGDMAVFVG came in with an amyloid nucleation score of 1.07 ± 0.41. Turning to CLKAFIWLRRLEGQI, the amyloid nucleation score is 0.082 ± 1.1. The result for SVADGAHFCYYNLYFGGFVY reads 4.24 ± 0.081; that for QIMLAGLRSLDLTVDRTFNS, “inactive”; that for ANSYYIVYLGPHHAYFFILK, 3.75 ± 0.12. The substance RMVSYY yielded an amyloid nucleation score of -0.474 ± 0.56. As for VCACKIYKRHTLGSR, the figure is -0.573 ± 0.76; as for GSRYLIGVEYE, 0.319 ± 0.56. The substance LCYWCTCR returned an amyloid nucleation score of 0.141 ± 0.41. The result for LGLCLHLISSFRHRYAVLSR reads -0.19 ± 0.3. For the substance MIVMLESLRRTTSQP, the amyloid nucleation score was 1.69 ± 0.21. As for FQLYT, the figure is 0.238 ± 0.29; as for ALECHIRLKWRVSVGPGVLV, 1.17 ± 0.28; as for SNVLTVIVCYTKAWINKSFM, “inactive”. As to VIDHLRCIETSVWGVVVWRI, the amyloid nucleation score is -0.148 ± 0.35. For KHYAL, the amyloid nucleation score was found to be 0.169 ± 0.8. As for NSLMSFWVSVV, the figure is 0.208 ± 0.34. As for MFCRTRALSRTGPTGQLLRV, the figure is 3.56 ± 0.13; as for TVIIDDTCICFYYIEYMWCE, “inactive”.

YHKRSPIYSVLYDLDSFK registered an amyloid nucleation score of -1.04 ± 1.1. The result for RKLTIA reads -0.887 ± 0.42.

Consider AESVCYQMTCIPCLLIFNTV, for which the amyloid nucleation score stood at 8.966 ± 0.054. As for RILLLDLRYYCTTP, the entry is “inactive”; as for YSGKNIAGLNFSIRCCSSIE, 8.793 ± 0.036; as for SMQCPLAAQTDM, -0.301 ± 0.45. Consider NVWNLQLYPTATCAKYNGAV, for which the amyloid nucleation score was determined as 4.13 ± 0.045. As for PFSIVIVANFYIITYEACFL, the figure is 2.85 ± 0.14; as for GTGINLSFLYFAAGVLCSSS, -1.52 ± 1.1; as for SAVNHTYVGD, 0.122 ± 1.1.

Take SVKCWRWFGA: the amyloid nucleation score came to 1.73 ± 0.27. Consider NGGTMLMRLDRS, for which the amyloid nucleation score was -0.216 ± 0.63. The result for RRDSVKCVSARGRISLLVSR reads 2.8 ± 0.056; that for LIHLNNAMIEHCMFEVRSFG, -0.016 ± 0.26; that for LFIYLGDQSSNKVKPTHFRE, -0.497 ± 0.33. Take KCLVSMVLMYAVTMIWDAPD: the amyloid nucleation score was determined as 1.35 ± 0.3. SGKTMEVIYNEGSCFCGFLT: the amyloid nucleation score was determined as 8.09 ± 0.081. PCLMEGFTS showed an amyloid nucleation score of -0.849 ± 0.64.

As to ATQRHVSTGKSGSN, the amyloid nucleation score came out at 0.606 ± 0.8. Regarding SWSCRMEADSGFPAFIGAKK, the amyloid nucleation score was -0.47 ± 1. Take NNMINDGNSMV: the amyloid nucleation score amounted to 0.026 ± 0.39. The result for DRPSCEFEPMFRRWDYSEGA reads 0.11 ± 0.23.

In turn, IGSWVVEFGRFGYCFHGVID displayed an amyloid nucleation score of 3.19 ± 0.089. As for IYHFNFIFNYLMGDPPYRAT, the figure is 7.778 ± 0.04; as for QKMRPNIKVFVYKNVGYNWC, 8.562 ± 0.054; as for AGEQEVDGPVIQRWSGFTTR, 2.2 ± 0.21. The substance LGNRVRMSWNW displayed an amyloid nucleation score of 0.807 ± 0.44. As for GVMIRKSARYYL, the figure is -0.275 ± 0.79; as for YFLRYSS, “inactive”; as for CFSKMFNV, -1.03 ± 0.53. As for RALLCGSDVSKRNHGRSFVF, the figure is 0.05 ± 1; as for WGDRLSVKFMCVDALGRVNL, 0.019 ± 0.56; as for MHLCADPAGFWDWN, -0.446 ± 1. As to WGDIDF, the amyloid nucleation score is -0.385 ± 0.64. On to CFFLYIRHFAMYCA, for which the amyloid nucleation score was determined as 1.65 ± 0.17. As for PGVRISVPVLLAWNCYC, the figure is 8.558 ± 0.071.

DVGSPWLNYSSFFIFWSTIS: the amyloid nucleation score was -1.02 ± 1.1. The result for INGSYSGYLERFGGMLRWMV reads 0.753 ± 0.52; that for YSEMRDSQAVVAYESRVVKP, 0.798 ± 0.46; that for RGINDILRFKS, 0.494 ± 0.44. As for TLLTYMVLKCFQFVSEYLWK, the figure is 3.7 ± 0.07; as for SPGIARDLANRILVTIRWVS, 1.25 ± 0.32; as for YILMHGSHM, 3.73 ± 0.071.

With TDLWSNYLSGNLVENFITCL, the amyloid nucleation score was -1.96 ± 1.1. As to MCFSIRPPGVMRVMHLTLVW, the amyloid nucleation score was found to be 0.135 ± 0.79. Regarding RVFNLLYVLNWNAKSLSWMS, the amyloid nucleation score was determined as 4.32 ± 0.11. In turn, KCVLLWWVIKYVCVDTDAAV displayed an amyloid nucleation score of -0.174 ± 0.74. Consider KLNLMCWDGLYLDMKIDSNL, for which the amyloid nucleation score is 3.94 ± 0.07. Turning to NSYWWFANK, the amyloid nucleation score was determined as 2.54 ± 0.08.

Take NFTSFAYFELEDALWSWRRL: the amyloid nucleation score worked out at 1.16 ± 0.35. Turning to RTIYFFLSWHFGSFIKFLKL, the amyloid nucleation score entry is “inactive”. STRNSFPSDKAYLS returned an amyloid nucleation score of -0.605 ± 0.74. The result for FSWASAQLIHSV reads 0.59 ± 0.64. As for AMDASR, the figure is 1.7 ± 0.12; as for RLTSGIW, -0.814 ± 0.76. For MGVLWMFFSF, the amyloid nucleation score was found to be 0.03 ± 0.4. As for NLKRMFYVGCSIVSRKLIGR, the figure is -0.095 ± 0.5; as for AVQAIITHQTLGKQVFFWFE, 7.85 ± 0.076.

KEPGERRYGTAASMNYTKVD: the amyloid nucleation score is -0.71 ± 1. As for SNSYGGDTQRY, the figure is -0.517 ± 0.33; as for SCSSCLL, -0.183 ± 1; as for SYVIGGGSMGQARDRCLSNA, 1.11 ± 0.23. Substance AWCFLYLLWLPGIQN displayed an amyloid nucleation score of -0.226 ± 1.1. For the substance GFCQASSWM, the amyloid nucleation score is -0.109 ± 0.76. As for CNFEHFFYKVFRFLQWTVYE, the figure is -0.153 ± 1.1. As for NVVFRFVVEYNLWWLSVPDY, the figure is -0.578 ± 1.1; as for YTLRSNTNASMRRHLMQVPR, -0.531 ± 1.1; as for CYIFYS, “inactive”. As for LFTKRRW, the figure is 0.87 ± 0.46; as for KLRPNLCKHYMTFMETSS, 0.175 ± 0.53. VEWEVMGVPDSKLDRGTGTV returned an amyloid nucleation score of 1.09 ± 0.53. The result for DYVRCVDLSN reads -0.863 ± 0.63; that for SMQFFFRS, 6.51 ± 0.072. In turn, MDLVCVAKSDVQACTYSAPV showed an amyloid nucleation score of 1.1 ± 0.39. QAGALFDKRQGLRYGWVVSM came in with an amyloid nucleation score of -0.641 ± 0.41. As for NWVNQTS, the figure is -1.6 ± 0.48; as for RCVGNCMMSLRAEYD, 2.8 ± 0.079. The substance ARYLITTAQVPVLGPRSQHK yielded an amyloid nucleation score of 0.073 ± 0.41. As for ESQNECVGYNMLDCMKLSRG, the amyloid nucleation score came out at 4.052 ± 0.037.

Consider AILGLYVYMGSWHKGVSGVI, for which the amyloid nucleation score entry was “inactive”. For the substance QCVGRASCANSVALYLCSVA, the amyloid nucleation score worked out at 0.06 ± 0.35. For the substance FWRDLPAQWTRPKAENLVLK, the amyloid nucleation score was 1.23 ± 0.32. For the substance LISKSGSFMNMLGTGDRAR, the amyloid nucleation score is 0.005 ± 1. Regarding RSKHQKRSALCYFESGVTAV, the amyloid nucleation score came to 0.663 ± 0.37. SCCFSMGGPVNVVQSSRMVR yielded an amyloid nucleation score of -0.781 ± 0.55. Regarding IPVYVAVIVG, the amyloid nucleation score entry is “inactive”. The result for VTRLFGIREFRG reads 3.65 ± 0.053; that for FFSGGIILHYSYPTWEWYRS, 2.92 ± 0.098.

Substance RILFRGHSVLKNWF showed an amyloid nucleation score of -1.86 ± 0.49. As for YSMGAYTVSMGACA, the figure is -1.05 ± 1.1; as for SSKFTHDYGGEDIVIDQDES, 0.14 ± 0.53; as for YRRLCWPWFRKLFEVYRDN, -0.554 ± 0.63. As for YFPVIRRDAAFYPFSAPYFN, the figure is -2.05 ± 0.77. The result for DYSLSWVRYSFAYRGVSKDG reads 0.061 ± 0.12; that for DYTNSTAEGFTF, “inactive”. In turn, LTFRAVSWTWCYPPELSSCS showed an amyloid nucleation score of 0.775 ± 0.49. As for AISRRALKTHHFKWGCNVG, the figure is 0.266 ± 0.19; as for NRKYTILVLDLLEGSLCARE, 0.599 ± 0.42.

For the substance SISRVVTWNRLRVKACRWAG, the amyloid nucleation score was 0.601 ± 0.28. The result for TRSPCGRCDSEFLNASLAGL reads 0.71 ± 0.36; that for CVECYFRCGLGITEVDTN, “inactive”. Substance STLTFIVSSSDEGWSHYREA displayed an amyloid nucleation score of 3.79 ± 0.07. The result for PAIISFQYLFGRRSELEKM reads 5.572 ± 0.047; that for HHWRGALGFVCWGRFEERWV, -0.567 ± 0.23.

In the case of KGNTIKSCSRMMLHRQHVW, the amyloid nucleation score was -0.485 ± 0.45. Substance YNILVK showed an amyloid nucleation score of -0.622 ± 0.43. As for CHSLRILRPRIYSVQVMLIG, the figure is -0.01 ± 0.63; as for RIGCRRPRFDNEQQWARS, 5.62 ± 0.093. The result for ECNTSVLSTWARDLVSPVLT reads 4.3 ± 0.053. As for GIRLGSNDQSVYSRPNV, the figure is 1.46 ± 0.35; as for ISPLLNVYRDYWLYMF, -1.37 ± 0.75.
